Reference: patent US20190300590A1 (PROTAGONIST THERAPEUTICS, published 2019)
Bridges are numbered along the chain shown (N, C = ends). [ ]: non-standard residue; d: D form. Phe(3,4-(OMe)2) = COc1ccc(C[C@H](N)C(=O)O)cc1OC; Phe(4-CONH2) = NC(=O)c1ccc(C[C@H](N)C(=O)O)cc1; 1Nal = N[C@@H](Cc1cccc2ccccc12)C(=O)O; 2Nal = N[C@@H](Cc1ccc2ccccc2c1)C(=O)O; AEF = NCCOc1ccc(C[C@H](N)C(=O)O)cc1; Pen = CC(C)(S)[C@H](N)C(=O)O; αMeV = CC(C)[C@](C)(N)C(=O)O; Aib = CC(C)(N)C(=O)O; PEG1 = NCCOCCC(=O)O; Sar = CNCC(=O)O

T1: IL23R_huFC (human, UniProt Q5VWK5 24-353)
T1 sequence (looked up): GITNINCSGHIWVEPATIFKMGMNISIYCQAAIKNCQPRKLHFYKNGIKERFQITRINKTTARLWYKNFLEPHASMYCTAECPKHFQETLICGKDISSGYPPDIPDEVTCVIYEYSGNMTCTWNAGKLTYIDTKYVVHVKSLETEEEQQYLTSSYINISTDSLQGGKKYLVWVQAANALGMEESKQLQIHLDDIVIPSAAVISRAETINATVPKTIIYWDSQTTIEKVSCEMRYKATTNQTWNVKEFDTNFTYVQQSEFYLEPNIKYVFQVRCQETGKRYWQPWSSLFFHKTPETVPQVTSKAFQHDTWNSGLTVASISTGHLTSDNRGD

T2: IL-23R on DB cells (human, UniProt Q5VWK5 24-629)
T2 sequence (looked up): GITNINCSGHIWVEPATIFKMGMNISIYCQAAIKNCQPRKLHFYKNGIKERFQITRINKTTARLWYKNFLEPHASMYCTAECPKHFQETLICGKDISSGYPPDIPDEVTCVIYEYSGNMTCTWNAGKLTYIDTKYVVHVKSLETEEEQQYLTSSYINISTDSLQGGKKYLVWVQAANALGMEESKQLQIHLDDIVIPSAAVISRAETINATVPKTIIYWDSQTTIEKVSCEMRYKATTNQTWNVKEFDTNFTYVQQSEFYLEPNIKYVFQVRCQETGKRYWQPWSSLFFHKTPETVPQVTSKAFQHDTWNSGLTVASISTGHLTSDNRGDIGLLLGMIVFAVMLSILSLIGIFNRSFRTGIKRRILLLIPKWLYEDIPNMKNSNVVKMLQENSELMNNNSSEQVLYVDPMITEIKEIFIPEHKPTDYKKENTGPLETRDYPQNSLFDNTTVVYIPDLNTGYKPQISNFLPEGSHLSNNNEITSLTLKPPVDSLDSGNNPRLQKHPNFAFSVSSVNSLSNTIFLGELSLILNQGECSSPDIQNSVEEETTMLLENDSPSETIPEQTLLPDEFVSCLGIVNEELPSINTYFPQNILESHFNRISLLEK


These binders were tested against T1, IL23R_huFC (assay: IL23-IL23R competitive ELISA).

Row | IC50 [nM] | Binder
1 | 500 to 1000 | Ac-GGVECNDWQCYWHTFG-NH2 (disulfide 5-10 (inferred)) [Ac-GGVECNDWQCYWHTFG-NH2]
2 | 500 to 1000 | H-CSDWVCYWHVYG-NH2 (disulfide 1-6 (inferred)) [Hy-CSDWVCYWHVYG-NH2]
3 | 500 to 1000 | H-CSNWECYWHHYG-NH2 (disulfide 1-6 (inferred)) [Hy-CSNWECYWHHYG-NH2]
4 | 500 to 1000 | Ac-CADWVCYWHNHSEGSG-NH2 (disulfide 1-6 (inferred)) [Ac-CADWVCYWHNHSEGSG-NH2]
5 | 500 to 1000 | Ac-CADWVCYWHFHQLRDA-NH2 (disulfide 1-6 (inferred)) [Ac-CADWVCYWHFHQLRDA-NH2]
6 | 500 to 1000 | CADWVCYXHTFG ([2-Nal]; -NH2; disulfide) [Hy-CADWVCY-[2-Nal]-HTFG-NH2]
7 | 500 to 1000 | H-CTTWKCYWHQYG-NH2 (disulfide 1-6 (inferred)) [Hy-CTTWKCYWHQYG-NH2]
8 | 500 to 1000 | CADWVCYXHTFG ([1-Nal]; -NH2; disulfide) [Hy-CADWVCY-[1-Nal]-HTFG-NH2]
9 | 500 to 1000 | H-CADWMCYWHEYG-NH2 (disulfide 1-6 (inferred)) [Hy-CADWMCYWHEYG-NH2]
10 | 500 to 1000 | Ac-CRDWVCYWHTFG-NH2 (disulfide 1-6 (inferred)) [Ac-CRDWVCYWHTFG-NH2]
11 | 500 to 1000 | H-CTDWKCYWHEFG-NH2 (disulfide 1-6 (inferred)) [Hy-CTDWKCYWHEFG-NH2]

Further lines, the binder ahead of its results:

Row | Binder | IC50 [nM]
12 | Ac-CADWVCYWHRSTGGQH-NH2 (disulfide 1-6 (inferred)) [Ac-CADWVCYWHRSTGGQH-NH2] | 500 to 1000
13 | Ac-CADWVCYWHEHSERVG-NH2 (disulfide 1-6 (inferred)) [Ac-CADWVCYWHEHSERVG-NH2] | 500 to 1000
14 | H-CRTWTCYWHVYG-NH2 (disulfide 1-6 (inferred)) [Hy-CRTWTCYWHVYG-NH2] | 500 to 1000
15 | H-CADWVCYWHTFG-NH2 (disulfide 1-6 (inferred)) [Hy-CADWVCYWHTFG-NH2] | 500 to 1000
16 | H-CPNWECYWHRFG-NH2 (disulfide 1-6 (inferred)) [Hy-CPNWECYWHRFG-NH2] | 500 to 1000
17 | Ac-TQFDCRTWECYWHTFG-NH2 (disulfide 5-10 (inferred)) [Ac-TQFDCRTWECYWHTFG-NH2] | 500 to 1000
18 | Ac-CADWVCYWHEFG-NH2 (disulfide 1-6 (inferred)) [Ac-CADWVCYWHEFG-NH2] | 500 to 1000
19 | Ac-[dK]CRDWQCY[1Nal]HTH[Sar][PEG1][dR]-NH2 (disulfide 2-7; SMILES CC(=O)N[C@H](CCCCN)C(=O)N[C@H]1CSSC[C@@H](C(=O)N[C@@H](Cc2ccc(O)cc2)C(=O)N[C@@H](Cc2cccc3ccccc23)C(=O)N[C@@H](Cc2c[nH]cn2)C(=O)N[C@H](C(=O)N[C@@H](Cc2c[nH]cn2)C(=O)N(C)CC(=O)NCCOCCC(=O)N[C@H](CCCNC(=N)N)C(N)=O)[C@@H](C)O)NC(=O)[C@H](CCC(N)=O)NC(=O)[C@H](Cc2c[nH]c3ccccc23)NC(=O)[C@H](CC(=O)O)NC(=O)[C@H](CCCNC(=N)N)NC1=O) [Ac-[(D)Lys]-CRDWQCY-[1-Nal]-HTH-[ Sarc]-[AEP]-(D)Arg]-NH2] | 500 to 1000

These binders were tested against T2, IL-23R on DB cells (assay: cell-based or functional assay).

Row | pStat3 HTRF IC50 [nM] | Binder
20 | < 10 | XXQTWQXFXXKNN (Ac; 2-Nal twice; Pen-Pen disulfide; Phe[4-(2-aminoethoxy)]; Aib; Lys(Ac); NH2) [Ac-[2-Nal]-[Pen]-QTWQ-[Pen]-[Phe[4-(2-aminoethoxy)]-[2-Nal]-[Aib]-[Lys(Ac)]-NN-NH2]
21 | < 10 | Ac-[dR][Pen]QTWQ[Pen][AEF][2Nal][Aib]K(Ac)NN-NH2 (disulfide 2-7; SMILES CC(=O)NCCCC[C@H](NC(=O)C(C)(C)NC(=O)[C@H](Cc1ccc2ccccc2c1)NC(=O)[C@H](Cc1ccc(OCCN)cc1)NC(=O)[C@H]1NC(=O)[C@H](CCC(N)=O)NC(=O)[C@H](Cc2c[nH]c3ccccc23)NC(=O)[C@H]([C@@H](C)O)NC(=O)[C@H](CCC(N)=O)NC(=O)[C@@H](NC(=O)[C@@H](CCCNC(=N)N)NC(C)=O)C(C)(C)SSC1(C)C)C(=O)N[C@@H](CC(N)=O)C(=O)N[C@@H](CC(N)=O)C(N)=O) [Ac-(D)Arg-[Pen]-QTWQ-[Pen]-[Phe[4-(2-aminoethoxy)]-[2-Nal]-[Aib]-[Lys(Ac)]-NN-NH2]
22 | < 10 | XNTWQXFXLKNA (Ac; Pen-Pen disulfide; Phe(4-OMe); 2-Nal; hLeu; Lys(Ac); βAla; NH2) [Ac-[Pen]-NTWQ-[Pen]-[Phe(4-OMe)]-[2-Nal]-[hLeu]-[Lys(Ac)]-N-[βAla]-NH2]
23 | 10 to 25 | Ac-[Pen]QTWQ[Pen][Phe(4-CONH2)][Phe(3,4-(OMe)2)][αMeV]K(Ac)NN-NH2 (disulfide 1-6 (inferred)) [Ac-[Pen]-QTWQ[Pen]-[Phe(4-CONH2)]-[Phe(3,4-OMe2)]-[α-MeVal]-[Lys(Ac)]-NN-NH2]
24 | < 10 | Ac-R[Pen]QTWQ[Pen][AEF][2Nal][Aib]K(Ac)NN-NH2 (disulfide 2-7; SMILES CC(=O)NCCCC[C@H](NC(=O)C(C)(C)NC(=O)[C@H](Cc1ccc2ccccc2c1)NC(=O)[C@H](Cc1ccc(OCCN)cc1)NC(=O)[C@H]1NC(=O)[C@H](CCC(N)=O)NC(=O)[C@H](Cc2c[nH]c3ccccc23)NC(=O)[C@H]([C@@H](C)O)NC(=O)[C@H](CCC(N)=O)NC(=O)[C@@H](NC(=O)[C@H](CCCNC(=N)N)NC(C)=O)C(C)(C)SSC1(C)C)C(=O)N[C@@H](CC(N)=O)C(=O)N[C@@H](CC(N)=O)C(N)=O) [Ac-R-[Pen]-QTWQ-[Pen]-[Phe[4-(2-aminoethoxy)]-[2-Nal]-[Aib]-[Lys(Ac)]-NN-NH2]

Continued, binder first:

Row | Binder | pStat3 HTRF IC50 [nM]
25 | Ac-E[Pen]QTWQ[Pen][AEF][2Nal][Aib]K(Ac)NN-NH2 (disulfide 2-7; SMILES CC(=O)NCCCC[C@H](NC(=O)C(C)(C)NC(=O)[C@H](Cc1ccc2ccccc2c1)NC(=O)[C@H](Cc1ccc(OCCN)cc1)NC(=O)[C@H]1NC(=O)[C@H](CCC(N)=O)NC(=O)[C@H](Cc2c[nH]c3ccccc23)NC(=O)[C@H]([C@@H](C)O)NC(=O)[C@H](CCC(N)=O)NC(=O)[C@@H](NC(=O)[C@H](CCC(=O)O)NC(C)=O)C(C)(C)SSC1(C)C)C(=O)N[C@@H](CC(N)=O)C(=O)N[C@@H](CC(N)=O)C(N)=O) [Ac-E-[Pen]-QTWQ-[Pen]-[Phe[4-(2-aminoethoxy)]-[2-Nal]-[Aib]-[Lys(Ac)]-NN-NH2] | < 10
26 | Ac-[dD][Pen]QTWQ[Pen][AEF][2Nal][Aib]K(Ac)NN-NH2 (disulfide 2-7; SMILES CC(=O)NCCCC[C@H](NC(=O)C(C)(C)NC(=O)[C@H](Cc1ccc2ccccc2c1)NC(=O)[C@H](Cc1ccc(OCCN)cc1)NC(=O)[C@H]1NC(=O)[C@H](CCC(N)=O)NC(=O)[C@H](Cc2c[nH]c3ccccc23)NC(=O)[C@H]([C@@H](C)O)NC(=O)[C@H](CCC(N)=O)NC(=O)[C@@H](NC(=O)[C@@H](CC(=O)O)NC(C)=O)C(C)(C)SSC1(C)C)C(=O)N[C@@H](CC(N)=O)C(=O)N[C@@H](CC(N)=O)C(N)=O) [Ac-(D)Asp-[Pen]-QTWQ-[Pen]-[Phe[4-(2-aminoethoxy)]-[2-Nal]-[Aib]-[Lys(Ac)]-NN-NH2] | < 10
27 | Ac-[dF][Pen]QTWQ[Pen][AEF][2Nal][Aib]K(Ac)NN-NH2 (disulfide 2-7; SMILES CC(=O)NCCCC[C@H](NC(=O)C(C)(C)NC(=O)[C@H](Cc1ccc2ccccc2c1)NC(=O)[C@H](Cc1ccc(OCCN)cc1)NC(=O)[C@H]1NC(=O)[C@H](CCC(N)=O)NC(=O)[C@H](Cc2c[nH]c3ccccc23)NC(=O)[C@H]([C@@H](C)O)NC(=O)[C@H](CCC(N)=O)NC(=O)[C@@H](NC(=O)[C@@H](Cc2ccccc2)NC(C)=O)C(C)(C)SSC1(C)C)C(=O)N[C@@H](CC(N)=O)C(=O)N[C@@H](CC(N)=O)C(N)=O) [Ac-(D)Phe-[Pen]-QTWQ-[Pen]-[Phe[4-(2-aminoethoxy)]-[2-Nal]-[Aib]-[Lys(Ac)]-NN-NH2] | < 10
28 | Ac-F[Pen]QTWQ[Pen][AEF][2Nal][Aib]K(Ac)NN-NH2 (disulfide 2-7; SMILES CC(=O)NCCCC[C@H](NC(=O)C(C)(C)NC(=O)[C@H](Cc1ccc2ccccc2c1)NC(=O)[C@H](Cc1ccc(OCCN)cc1)NC(=O)[C@H]1NC(=O)[C@H](CCC(N)=O)NC(=O)[C@H](Cc2c[nH]c3ccccc23)NC(=O)[C@H]([C@@H](C)O)NC(=O)[C@H](CCC(N)=O)NC(=O)[C@@H](NC(=O)[C@H](Cc2ccccc2)NC(C)=O)C(C)(C)SSC1(C)C)C(=O)N[C@@H](CC(N)=O)C(=O)N[C@@H](CC(N)=O)C(N)=O) [Ac-Phe-[Pen]-QTWQ-[Pen]-[Phe[4-(2-aminoethoxy)]-[2-Nal]-[Aib]-[Lys(Ac)]-NN-NH2] | < 10
29 | XNTWQXFXLKNA (Ac; Pen-Pen disulfide; Phe[4-(2-aminoethoxy)]; 2-Nal; hLeu; Lys(Ac); βAla; NH2) [Ac-[Pen]-NTWQ-[Pen]-[Phe[4-(2-aminoethoxy)]-[2-Nal]-[hLeu]-[Lys(Ac)]-N-[βAla]-NH2] | < 10
30 | XNTWQXFXXKNA (Ac; Pen-Pen disulfide; Phe[4-(2-aminoethoxy)]; 2-Nal; Aib; Lys(Ac); βAla; NH2) [Ac-[Pen]-NTWQ-[Pen]-[Phe[4-(2-aminoethoxy)]-[2-Nal]-[Aib]-[Lys(Ac)]-N-[βAla]-NH2] | < 10
